Results as given in patent US20080044815.

Columns and labels:
[1] = system: FLAG-tagged JNK1(Arg-309-Trp) from the pCMV-FLAG vector, expressed in COS cells
[2] = system: FLAG-tagged wild-type JNK1 from pCMV-FLAG-JNK1, expressed in COS cells
[3] = system: FLAG-tagged JNK1(Leu-131-Arg) from the pCMV-FLAG vector, expressed in COS cells
[4] = system: FLAG-tagged JNK1(Tyr-320-His) from the pCMV-FLAG vector, expressed in COS cells
Sequence of FLAG-tagged JNK1(Tyr-320-His) from the pCMV-FLAG vector, expressed in COS cells (chain, as listed by the source Y320H): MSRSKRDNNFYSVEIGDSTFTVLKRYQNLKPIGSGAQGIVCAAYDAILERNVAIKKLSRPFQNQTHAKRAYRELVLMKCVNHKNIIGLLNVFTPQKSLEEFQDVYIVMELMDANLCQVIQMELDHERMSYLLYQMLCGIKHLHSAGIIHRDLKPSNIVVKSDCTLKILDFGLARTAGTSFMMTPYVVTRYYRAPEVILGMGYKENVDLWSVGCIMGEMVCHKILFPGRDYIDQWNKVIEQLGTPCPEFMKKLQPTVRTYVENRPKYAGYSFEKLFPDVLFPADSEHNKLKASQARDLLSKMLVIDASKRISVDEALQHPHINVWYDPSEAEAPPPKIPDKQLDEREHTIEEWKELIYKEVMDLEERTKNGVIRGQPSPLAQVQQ

Sequence of FLAG-tagged wild-type JNK1 from pCMV-FLAG-JNK1, expressed in COS cells (chain, as listed by the source): as the sequence (chain, as listed by the source Y320H) above, with H320Y counted along it
Sequence of FLAG-tagged JNK1(Leu-131-Arg) from the pCMV-FLAG vector, expressed in COS cells (chain, as listed by the source L131R): as the sequence (chain, as listed by the source Y320H) above, with L131R, H320Y counted along it
Sequence of FLAG-tagged JNK1(Arg-309-Trp) from the pCMV-FLAG vector, expressed in COS cells (chain, as listed by the source R309W): as the sequence (chain, as listed by the source Y320H) above, with R309W, H320Y counted along it

For “GST-MKK4(ED), constitutively active form of MKK4”, the “phosphorylation of immunoprecipitated FLAG-JNK by GST-MKK4(ED), in vitro kinase assay with [32P]ATP, autoradiography” value (“phosphorylation” below) [1] was “the negligible amount of radioactive phosphate incorporated into any of the three JNK mutants was not increased by the presence of active MKK4”, the “phosphorylation” value [2] was “The presence of active MKK4 increased the phosphorylation of wildtype JNK relative to the autophosphorylation that occurred in the absence of any upstream activator protein” and the “phosphorylation” value [3] was “the negligible amount of radioactive phosphate incorporated into any of the three JNK mutants was not increased by the presence of active MKK4”. The “phosphorylation” value [4] was “the negligible amount of radioactive phosphate incorporated into any of the three JNK mutants was not increased by the presence of active MKK4”.
